Like-named read-outs stand apart in the source and are kept apart here.
Columns and labels:
[1] = molecular target: cytochrome f (PetA) with a C-terminal six-histidine tag, F. diplosiphon SF33 (Fremyella diplosiphon SF33); assay: co-purification
[2] = molecular target: cytochrome f (PetA) with a C-terminal six-histidine tag, F. diplosiphon SF33 (Fremyella diplosiphon SF33); assay: co-purification; remark: listed apart in the source
[3] = molecular target: cytochrome b6f complex of spinach (monomeric unit) (spinach) (UniProt P16013); assay: native gel or EMSA

stoichiometry N (relative to cyt f) [1] | stoichiometry N (relative to cyt f) [2] | stoichiometry N [3] | Substance
0.69 | 1.09 |  | cytochrome b6 (PetB), F. diplosiphon SF33 (natural protein)
 |  | 2 | cytochrome b6f complex of spinach (monomeric unit) (from UniProt P16013 36-320; P00165 1-215; P08980 52-230; P00166 1-160)
0.21 | 0.17 |  | iron-sulfur protein (ISP), full length, F. diplosiphon SF33 (natural protein)
0.29 | 0.45 |  | subunit IV (PetD), F. diplosiphon SF33 (natural protein)

From PMC4672631
